Source: patent publication US20160000936A1 (AbbVie / Abbott, published 2016)

T1: murine TNF (mouse, UniProt P06804 80-235)
T1 construct: also called mouse TNFα; TNFα
T1 sequence (looked up): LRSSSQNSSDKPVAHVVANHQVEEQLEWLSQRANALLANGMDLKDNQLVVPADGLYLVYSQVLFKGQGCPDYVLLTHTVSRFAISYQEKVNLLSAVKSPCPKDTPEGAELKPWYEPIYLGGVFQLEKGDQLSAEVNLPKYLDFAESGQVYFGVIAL

T2: murine IL-17 (mouse, UniProt Q62386 26-158)
T2 construct: also called mouse IL-17
T2 sequence (looked up): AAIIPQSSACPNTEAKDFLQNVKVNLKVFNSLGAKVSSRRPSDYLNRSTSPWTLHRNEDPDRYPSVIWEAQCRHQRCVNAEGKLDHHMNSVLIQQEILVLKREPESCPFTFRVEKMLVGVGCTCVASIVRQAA

B1: anti-mouse TNF/IL-17 DVD-Ig protein 8C11/10F7M11 (bispecific antibody, human IgG1, kappa, L234A L235A)
heavy: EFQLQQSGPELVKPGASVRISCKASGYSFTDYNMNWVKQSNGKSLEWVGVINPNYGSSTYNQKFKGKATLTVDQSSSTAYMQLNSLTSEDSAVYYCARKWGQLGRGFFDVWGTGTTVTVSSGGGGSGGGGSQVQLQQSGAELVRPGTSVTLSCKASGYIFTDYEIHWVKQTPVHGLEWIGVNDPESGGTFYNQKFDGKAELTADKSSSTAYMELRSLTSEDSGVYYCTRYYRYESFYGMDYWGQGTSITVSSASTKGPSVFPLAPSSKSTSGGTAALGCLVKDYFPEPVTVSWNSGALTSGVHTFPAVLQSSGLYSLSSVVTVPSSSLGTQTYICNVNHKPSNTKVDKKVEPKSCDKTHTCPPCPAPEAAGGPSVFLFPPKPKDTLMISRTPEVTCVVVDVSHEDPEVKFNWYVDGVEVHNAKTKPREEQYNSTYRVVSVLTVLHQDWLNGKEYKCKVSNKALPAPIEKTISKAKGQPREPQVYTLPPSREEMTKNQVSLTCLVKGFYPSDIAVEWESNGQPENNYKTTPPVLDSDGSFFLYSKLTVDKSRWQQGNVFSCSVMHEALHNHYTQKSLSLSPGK
light: QIVLSQSPAILSASPGEKVTMTCRASSSVSYMHWFQQKPGSSPKPWIYATSNLASGVPARFSGSGSGTSYSLTISRVEAEDAATYYCQQWSSSPLTFGAGTKLELKRGGSGGGGSGQIVLTQSPAIMSASPGEKVTMTCSASSSISYIYWFQQKPGTSPKRWIYATFELASGVPARFSGSGSGTSYSLTISSMEAEDAATYYCHQRSSYPWTFGGGSKLEIKRTVAAPSVFIFPPSDEQLKSGTASVVCLLNNFYPREAKVQWKVDNALQSGNSQESVTEQDSKDSTYSLSSTLTLSKADYEKHKVYACEVTHQGLSSPVTKSFNRGEC
notes: The constant regions of the protein actually assayed are therefore uncertain; also called 8C11/10F7-DVD-Ig protein; 8C11/10F7M11 anti-TNF/IL-17 DVD-Ig protein
B2: anti-murine TNF antibody 8C11 (antibody, mouse IgG2c, V domains shown)
VH: EFQLQQSGPELVKPGASVRISCKASGYSFTDYNMNWVKQSNGKSLEWVGVINPNYGSSTYNQKFKGKATLTVDQSSSTAYMQLNSLTSEDSAVYYCARKWGQLGRGFFDVWGTGTTVTVSS
VL: QIVLSQSPAILSASPGEKVTMTCRASSSVSYMHWFQQKPGSSPKPWIYATSNLASGVPARFSGSGSGTSYSLTISRVEAEDAATYYCQQWSSSPLTFGAGTKLELKR
notes: also called 8C11 anti-TNF antibody; anti-TNFα antibody 8C11

Key:
murine TNF = molecular target: T1, murine TNF; test: assay not described; table titled 'Source And Binding Information'
murine IL-17 = molecular target: T2, murine IL-17; test: as above

Binder | IC50 (murine TNF) [nM] | IC50 (murine IL-17) [nM]
B1 | 2 | 0.13
B2 | 2 | –
